Measurements reported in publication PMC7954794, “Protein context shapes the specificity of SH3 domain-mediated interactions in vivo” (Nature Communications, 2021).

Test system: growth of yeast strains under 51 stress conditions
Assay: Growth assays in 51 stress conditions (Fig. 1E-F, S2D, S5B)
Format: cell-based, Saccharomyces cerevisiae
Set-up: key to Growth (Fig. S2D) / growth of ABP1 SH3-swapped strains in stress condition: log2 colony size, average of median per strain (growth score)
Conditions: for Growth (Fig. S2D): ABP1 SH3-swapped strains
Experimental: All WT, SH3-deleted, KO (except for CDC25 which is the only essential SH3-containing gene in yeast), ABP1 SH3-swapped, and SLA1 SH3-shuffled strains were grown on omnitrays in 1536 formats and robotically manipulated with a pin tool (the DHFR F[1,2] bait strains were used except for the KO strains). Each strain was randomly positioned in 6 replicates per plate and two plates per condition were performed, for 12 replicates per strain in total. A border of two rows and two columns of WT strains (BY4741) around the plate was used to remove border effects. Strains were grown on YPD media for two days at 30 °C. They were then replicated on 51 different media that are described in the Supplementary Table 3 and were incubated at 37 °C in a spImager custom platform with images acquired every two hours for four days. The colony sizes from plate pictures were also measured with the R package “Gitter” and the output was manually inspected. Positions with an abnormality in colony circularity were removed. The colony sizes after 74 h of incubation at 37 °C were log2 transformed and used for the analyses. First, the differences between the two plate replicates were corrected to remove plate effects. The median colony size was calculated for each strain per plate. Strains with a difference in their median colony size of more than two between the two plate replicates were removed. Finally, the average of the median colony size was calculated for each strain per condition (growth score).

B1: ABP1: yeast SH3-containing protein; SH3-deleted (D) or gene-deleted (KO) strain (protein, UniProt P15891 2-592, looked up)
Actin-binding protein: ALEPIDYTTHSREIDAEYLKIVRGSDPDTTWLIISPNAKKEYEPESTGSSFHDFLQLFDETKVQYGLARVSPPGSDVEKIIIIGWCPDSAPLKTRASFAANFAAVANNLFKGYHVQVTARDEDDLDENELLMKISNAAGARYSIQTSSKQQGKASTPPVKKSFTPSKSPAPVSKKEPVKTPSPAPAAKISSRVNDNNDDDDWNEPELKERDFDQAPLKPNQSSYKPIGKIDLQKVIAEEKAKEDPRLVQKPTAAGSKIDPSSDIANLKNESKLKRDSEFNSFLGTTKPPSMTESSLKNDDDKVIKGFRNEKSPAQLWAERKAKQNSGNAETKAEAPKPEVPEDEPEGEPDVKDLKSKFEGLAASEKEEEEMENKFAPPPKKSEPTIISPKPFSKPQEPVKAEEAEQPKTDYKKIGNPLPGMHIEADNEEEPEENDDDWDDDEDEAAQPPLPSRNVASGAPVQKEEPEQEEIAPSLPSRNSIPAPKQEEAPEQAPEEEIEEEAEEAAPQLPSRSSAAPPPPPRRATPEKKPKENPWATAEYDYDAAEDNELTFVENDKIINIEFVDDDWWLGELEKDGSKGLFPSNYVSLGN
size (colony size) (Abp1 SH3 swaps (FigS2D), SC pH6, Plate 1, Time 74, Rep 1, one colony): 2065 | relative_to_wt, D_minus_WT (Bathophenanthroline 0.1uM, D = SH3 deletion (all SH3s deleted for multi-SH3 proteins), log2 colony size, 74 h at 37 °C, n = 12): 0.05618 | relative_to_wt, KO_minus_WT (Bathophenanthroline 0.1uM, KO = gene deletion, log2 colony size, 74 h at 37 °C, n = 12): -0.004019 | Growth (Fig. S2D) (Bathophenanthroline.0.1uM): 10.7819 | Growth (Fig. S2D) (Bathophenanthroline.10uM): 10.707 | Growth (Fig. S2D) (Bathophenanthroline.1uM): 10.7137 | Growth (Fig. S2D) (CaCl2.100mM): 10.7891 | Growth (Fig. S2D) (CaCl2.250mM): 10.7489 | Growth (Fig. S2D) (CaCl2.500mM): 10.224 | Growth (Fig. S2D) (Caffein.10mM): 10.0464 | Growth (Fig. S2D) (CdCl2.10uM): 10.9024 | Growth (Fig. S2D) (CdCl2.50uM): 10.1243 | Growth (Fig. S2D) (CuSO4.1mM): 10.685 | Growth (Fig. S2D) (CuSO4.5mM): 8.504 | Growth (Fig. S2D) (Cycloheximide.0.05.uM): 11.0798 | Growth (Fig. S2D) (Cycloheximide.0.2.uM): 10.7165 | Growth (Fig. S2D) (Cycloheximide.0.5.uM): 10.6015 | Growth (Fig. S2D) (DMSO.2.): 11.0276 | Growth (Fig. S2D) (DMSO.6.): 10.032 | Growth (Fig. S2D) (DMSO.8.): 9.2108 | Growth (Fig. S2D) (Ethanol.2.): 10.8119 | Growth (Fig. S2D) (Ethanol.6.): 10.4593 | Growth (Fig. S2D) (Ethanol.8.): 10.4305 | Growth (Fig. S2D) (Galactose.2.): 10.8275 | Growth (Fig. S2D) (Glycerol.2.): 10.3524 | Growth (Fig. S2D) (Hydroxyurea.25mM): 10.8959 | Growth (Fig. S2D) (Hygromycin.190uM): 10.9986 | Growth (Fig. S2D) (Hygromycin.19uM): 10.9797 | Growth (Fig. S2D) (Hygromycin.95uM): 11.0235 | Growth (Fig. S2D) (MMS.0.004.): 10.9969 | Growth (Fig. S2D) (MMS.0.02.): 10.8642 | Growth (Fig. S2D) (MMS.0.04.): 10.3851 | Growth (Fig. S2D) (Menadione.100uM): 10.5759 | Growth (Fig. S2D) (Menadione.200uM): 10.5046 | Growth (Fig. S2D) (Menadione.50uM): 10.8116 | Growth (Fig. S2D) (NaCl.0.25M): 10.7355 | Growth (Fig. S2D) (NaCl.1M): 10.3236 | Growth (Fig. S2D) (Nitroquinoline.10uM): 10.7675 | Growth (Fig. S2D) (Nitroquinoline.50uM): 10.7265 | Growth (Fig. S2D) (Nystatin.0.01uM): 11.043 | Growth (Fig. S2D) (Nystatin.0.1uM): 11.0609 | Growth (Fig. S2D) (Raffinose.2.): 10.9185 | Growth (Fig. S2D) (Rapamycin.10nM): 10.1065 | Growth (Fig. S2D) (Rapamycin.50nM): 9.408 | Growth (Fig. S2D) (SC.pH3): 10.3986 | Growth (Fig. S2D) (SC.pH6): 11.0415 | Growth (Fig. S2D) (SDS.0.01.): 10.9914 | Growth (Fig. S2D) (SDS.0.02.): 10.9706 | Growth (Fig. S2D) (SDS.0.05.): 10.8264 | Growth (Fig. S2D) (Sorbitol.10mM): 10.9836 | Growth (Fig. S2D) (Sorbitol.1mM): 10.9924 | Growth (Fig. S2D) (Sorbitol.5mM): 10.9128
